Data published in patent publication US7553821B2, “Methods for selectively modulating survivin apoptosis pathways” (Yale University, priority 2000, dated 2009).

Assays:
caspase-9 [1] = biological target: T1, caspase-9 (Homo sapiens, UniProt P55211); assay: Co-immunoprecipitation of survivin and caspase-9 from HeLa cells; format: binding; details: viable HeLa cells 24 h after transfection
T1 construct: immunoprecipitated with an antibody to HA followed by Western blotting with an antibody to caspase-9; endogenous in cells; host or cells: HeLa
T1 sequence (P55211 1-416): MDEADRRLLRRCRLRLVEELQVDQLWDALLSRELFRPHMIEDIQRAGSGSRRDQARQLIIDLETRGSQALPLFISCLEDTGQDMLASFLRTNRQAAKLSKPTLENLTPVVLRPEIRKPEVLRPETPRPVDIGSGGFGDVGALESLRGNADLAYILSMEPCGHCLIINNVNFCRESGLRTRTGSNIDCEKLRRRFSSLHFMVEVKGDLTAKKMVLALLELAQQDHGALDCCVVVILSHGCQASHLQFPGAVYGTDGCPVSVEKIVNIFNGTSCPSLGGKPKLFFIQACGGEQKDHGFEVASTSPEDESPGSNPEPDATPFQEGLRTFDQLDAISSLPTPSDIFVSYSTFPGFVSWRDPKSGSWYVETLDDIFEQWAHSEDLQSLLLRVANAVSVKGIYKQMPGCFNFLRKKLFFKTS
Procedure: (§1) Asynchronously growing HeLa cells were transfected with HA-wild type survivin (WT) or HA-survivin(T34A) (T34A), detergent-solubilized after 24 h and immunoprecipitated with an antibody to HA followed by Western blotting with an antibody to caspase-9. Arrow, position of 46 kDa proform caspase-9.
(§2) HeLa cells were transfected with the indicated HA-constructs, synchronized to the G1/S boundary by a 16-h treatment with thymidine and released. Aliquots of the various cultures were immunoprecipitated at the indicated time intervals with an antibody to HA, and immunoblotted with antibodies to caspase-9 or HA. P, pellet; S, supernatant. For all panels, molecular weight markers are indicated on the left.
(§3) Transfection experiments. For transient transfection, HeLa cells in C-6 tissue culture plates (Costar, Cambridge, Mass.) at ˜60-70% confluency, were incubated in 1 ml of serum-free OptiMEM medium (Life Technologies, Gaithersburg, Md.) for 20 min, and transfected with 2.5 μg of the various plasmid cDNAs plus 9 μl Lipofectamine (Life Technologies). After a 5 h incubation at 37° C., the mixture was aspirated and substituted with complete growth medium for 48-72 h. […] Gated GFP-expressing cells were analyzed for DNA content by flow cytometry on a FACSort (Becton Dickinson, San Jose, Calif.) using a Cell Quest software. […]

caspase-9 [2] = assay: as above; format: binding; details: synchronized HeLa cells entering mitosis 12 h after thymidine release
Procedure: as §1, §2, §3

## survivin(T34A): dominant-negative, non-phosphorylatable survivin mutant with Thr34→Ala substitution, expressed from transfected cDNA (also HA- or GFP-tagged)
caspase-9 [1]
  caspase-9 associated with HA immunoprecipitates by Western blotting: presence of associated ˜46 kDa proform caspase-9
caspase-9 [2]
  caspase-9 associated with HA immunoprecipitates by Western blotting: did not contain associated proform or active caspase-9 bands
